T1: recombinant human TK1 (human, UniProt P04183 1-234, limits assumed)
T1 construct: also called rHTK1; human recombinant TK1
T1 sequence: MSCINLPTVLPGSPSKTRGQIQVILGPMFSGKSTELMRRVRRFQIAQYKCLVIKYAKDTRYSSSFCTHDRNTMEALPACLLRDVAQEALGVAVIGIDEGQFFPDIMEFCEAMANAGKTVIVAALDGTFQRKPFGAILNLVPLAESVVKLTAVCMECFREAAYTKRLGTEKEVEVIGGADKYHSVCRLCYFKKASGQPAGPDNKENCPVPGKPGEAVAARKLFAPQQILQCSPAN

T2: recombinant feline TK1 (cat, UniProt P04183 2-234 (human entry))
T2 construct: also called rFTK1; cat TK1
T2 chain: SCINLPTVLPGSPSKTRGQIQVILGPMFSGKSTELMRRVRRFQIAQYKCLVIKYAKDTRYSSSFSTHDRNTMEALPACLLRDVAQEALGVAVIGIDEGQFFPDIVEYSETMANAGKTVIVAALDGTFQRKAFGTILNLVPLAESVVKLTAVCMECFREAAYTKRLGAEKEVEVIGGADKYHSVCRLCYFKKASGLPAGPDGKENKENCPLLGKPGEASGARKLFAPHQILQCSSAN

T3: recombinant equine TK1 (horse, UniProt P04183 2-234 (human entry))
T3 construct: also called rETK1; horse TK1
T3 chain: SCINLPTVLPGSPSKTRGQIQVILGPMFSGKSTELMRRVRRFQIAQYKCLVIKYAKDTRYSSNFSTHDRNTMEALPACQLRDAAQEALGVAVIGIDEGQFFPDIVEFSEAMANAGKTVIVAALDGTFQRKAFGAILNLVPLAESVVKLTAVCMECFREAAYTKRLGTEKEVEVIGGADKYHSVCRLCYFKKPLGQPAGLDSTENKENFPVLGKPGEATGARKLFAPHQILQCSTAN

T4: human cytosolic TK1 in CEM TK1+ cell extract (human, UniProt P04183 2-234)
T4 construct: Cell extract with 25 ug (also printed as 25 pg) of protein; also called wild-type of CEM cell extract; cytosolic TK1 from human (CEM+)
T4 sequence: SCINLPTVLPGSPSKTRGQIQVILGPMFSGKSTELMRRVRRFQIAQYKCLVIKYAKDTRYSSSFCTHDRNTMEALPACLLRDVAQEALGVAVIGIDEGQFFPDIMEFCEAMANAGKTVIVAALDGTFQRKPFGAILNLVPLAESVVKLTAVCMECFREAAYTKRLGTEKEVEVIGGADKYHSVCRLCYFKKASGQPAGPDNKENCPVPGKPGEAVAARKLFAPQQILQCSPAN

T5: recombinant canine TK1 (dog)
T5 construct: also called rCTK1; recombinant dog TK1
T5 chain: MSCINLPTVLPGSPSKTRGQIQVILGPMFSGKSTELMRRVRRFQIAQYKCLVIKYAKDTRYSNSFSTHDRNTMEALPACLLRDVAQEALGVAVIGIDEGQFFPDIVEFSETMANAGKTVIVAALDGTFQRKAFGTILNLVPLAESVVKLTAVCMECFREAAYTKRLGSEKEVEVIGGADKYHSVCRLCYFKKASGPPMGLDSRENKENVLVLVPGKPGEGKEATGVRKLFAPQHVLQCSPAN


Legend:
recombinant human TK1 [1] = target: T1, recombinant human TK1; assay: ECL dot blot with recombinant TK1
Method: (§1) FIGS. 3A-3D show dot blot and Western blot analysis. Recombinant TK1 protein from canine (rCTK1), feline (rFTK1), equine (rETK1) and human (rHTK1) at concentration ranging from 20-0.6 ng was blotted. The membranes were developed with (FIG. 3A) monoclonal antibody produced against active site mAb1 ([…], diluted in TBS containing 3% of non-fat dry milk) and (FIG. 3B) monoclonal antibody produced against C terminal region mAb2 ([…], diluted in TBS containing 3% of non-fat dry milk). Recombinant dog TK1, human TK1 at concentration (10, 5 and 2.5 ng) and human TK1 positive cell extract containing 25 μg of protein (CEM TK1+) and TK1 negative cell extract containing 25 µg of protein (CEM TK1−) were electrophoresed using SDS-PAGE, followed by Western blots with […] of mAb1 diluted in TBS containing 3% of non-fat dry milk (FIG. 3C). Western blot results with […] of mAb2 diluted in TBS containing 3% of non-fat dry milk mAb 2 (FIG. 3D).
(§2) ECL dot blot assay was carried out as described previously (He et al., 2000). In brief, 3 μl of recombinant enzyme at varying concentrations ranged from 20 to 0.6 ng was applied on nitrocellulose membrane (Thermo scientific, Germany). The membrane was blocked in non-fat dry milk 10% (Bio-Rad) for 1 h and then incubated with the hybridoma supernatants or antisera and incubated for overnight at 4° C. Then after the membrane was washed and incubated with a biotinylated second antibody conjugated with horseradish peroxidase directed against mouse (GE healthcare, UK) for 1 h at room temperature. Followed by adding ECL reagent. Finally, the signal was detected by ChemiDoc Imaging System BIO-RAD.

recombinant feline TK1 [2] = target: T2, recombinant feline TK1; assay: ECL dot blot with recombinant TK1
Method: as §1, §2

recombinant equine TK1 [3] = target: T3, recombinant equine TK1; assay: ECL dot blot with recombinant TK1
Method: as §1, §2

[4] = target: T4, human cytosolic TK1 in CEM TK1+ cell …; assay: Western blot after SDS-PAGE, mAb2 at 2 pg/ml as printed
Method: as §1
(§3) Western blot assay: recombinant canine TK1, human recombinant TK1 ([…]) and cytosolic TK1 from human (CEM+/−) containing 25 µg of proteins were diluted in a denaturing sample buffer, boiled, and loaded onto a 12% polyacrylamide gel. The gel was electrophoresed in SDS running buffer. […]

recombinant canine TK1 = target: T5, recombinant canine TK1; assay: Quartz Crystal Microbalance, antibody immobilized, recombinant canine TK1 injected
Method: The kinetics of the interaction between the two monoclonal antibodies, mAb1 and mAb2 (150 kDa), and canine recombinant TK1 was measured by a Quartz Crystal Microbalance (QCM) technology. To characterize binding interactions, the monoclonal antibody was immobilized on the sensor surface and the sample containing recombinant canine TK1 was injected over the sensor surface. […] The signal output is given in frequency (Hz) and is directly related to changes in mass on the sensor surface.

recombinant human TK1 [5] = target: T1, recombinant human TK1; assay: ECL dot blot with recombinant TK1, 20 to 0.6 ng
Method: as §1, §2

recombinant feline TK1 [6] = target: T2, recombinant feline TK1; assay: ECL dot blot with recombinant TK1, 20 to 0.6 ng
Method: as §1, §2

recombinant equine TK1 [7] = target: T3, recombinant equine TK1; assay: ECL dot blot with recombinant TK1, 20 to 0.6 ng
Method: as §1, §2

[8] = target: T4, human cytosolic TK1 in CEM TK1+ cell …; assay: Western blot after SDS-PAGE of denatured cell extract
Method: as §1, §3

binding result (recombinant human TK1 [1])	binding result (recombinant feline TK1 [2])	binding result (recombinant equine TK1 [3])	binding result [4]	Kd (recombinant canine TK1) [pM]	koff (recombinant canine TK1) [s⁻¹]	kon (recombinant canine TK1) [M⁻¹ s⁻¹]	binding result (recombinant human TK1 [5])	binding result (recombinant feline TK1 [6])	binding result (recombinant equine TK1 [7])	binding result [8]	Binder
no binding (tested: 20 to 0.6 ng)	no binding (tested: 20 to 0.6 ng)	no binding (tested: 20 to 0.6 ng)	no binding	200 to 400	0.00011 to 0.00019	500000 to 540000					CTK1-2 (mAb2) (antibody, mouse IgG2b, kappa, V domains shown, Mouse monoclonal IgG2b-kappa from hybridoma sub-clone 3H11, raised against the C-terminal peptide (amino acids 211-225) of dog TK1; also called 3H11) VH: EVQLQQSGAELVKPGASVKLSCTASGFNIKDTYMHWVKQRPEQGLEWIGRIDPANGNTKYDPKFQGKATITPDTSSTTAYLQLSSLTSEDTAVYYCARNRAYYGNYYAMDYWGQGTSVTVSS VL: DIVMTQSPSSLTVTAGEKVTMSCKSSQSLLNSRNQKNYLTWYQQKPGQPPKLLIYWASTRESGVPDRFTGSGFGTDFTLAISSVQAEDLAVYYCQNDYSYPFTFGSGTKLEIKR
				300 to 750	6.1e-05 to 0.00023	240000 to 300000	binds	binds	binds	binds	CTK1-1 (mAb1) (antibody, mouse IgG1, kappa, V domains shown, Mouse monoclonal IgG1-kappa from hybridoma sub-clone 9C8, raised against the active site peptide (amino acids 161-183) of human TK1; also called 9C8) VH: EVKLVESGGGLVQPGDSLRLSCATSGFTFNDHYMNWVRQPPGKALEWVAFIGNKAYGYKIEYNSSVKGRFTISRDDSQSFLYLQLNTLRSEDSATYYCARDGAFIYWGQGTVVTVSA VL: DVVMTQTPLSLPVSLGDQASISCRSSQSLVHSNGNTYLHWYLQKPGQSPKLLIYKVSNRFSGVPDRFSGSGSGSDFTLKISRVEAEDLGVYFCSQSTHIPYTFGGGTELEIRR

From US20240044903A1 (KOZA NOVEL MATERIALS KOREA, published 2024)
